Measurements published in the DeepSol protein solubility set.

test: soluble on expression in E. coli; label from the status in PepcDB or PDB records

**Q.** Which “soluble on expression in E. coli” value does the source give for “MSRCKRCLLPHSAPGAAVDSSGICAFCRSYVPNDKNLSDQLHQQRQLDLEKALADCRGKGPYDVLVCLSGGKDSLYLLYRLKVEYKLNVLAFTTDVNIPDIAWNNIHRTIQKLDIDHLVYRPSAQFYRKLFRYLLMNQEERGAVYTVSYVYAPLFEGDALQVAMEKGIPLVLAGYSPGQPEPERMEFEFSRKLITETDWTPPGLRQSGEFTEEELARFWNPKRFPADTRFPRYLAPFHAWDYDQEAMIRKVHDLELVKRRAHGNPIYSNYPINWLLMYSDLKHFGYNPYAPEFSALIRAGKASRAYWWFMTPIVNFIIRNKLLIGRNTVDQLQQLGLQEDDLKITRPRGAYDPEID” here?
**A.** The value was “not soluble”.

**Q.** Which “soluble on expression in E. coli” value does the source give for “MSRDGSVAPKERINIRYVPATGDTQEDVELPLSMMVVGDFTARADETPIEERTPINIDKDNFNDVLEGMSPNVKVNVENRLSDEEGAQIGVDLTFQNMKDFSPEAIAKSVPELNSLLELREALVALKGPLGNVPAFRKKIASVLQDEEARKKLLDELSIGNDQDAKEE” here?
**A.** Its value is “soluble”.

**Q.** With “MSRDLPSLNALRAFEAAARLHSISLAAEELHVTHGAVSRQVRLLEDDLGVALFGKDGRGVKLTDSGVRLRDACGDAFERLRGVCAELRRQTAEAPFVLGVPGSLLARWFIPRLDQLNRALPDLRLQLSTSEGEFDPRRPGLDAMLWFAEPPWPADMQVFELAPERMGPVVSPRLAQETGLAQAPAARLLQEPLLHTASRPQAWPAWAASQGLAAEALRYGQGFEHLYYLLEAAVAGLGVAIAPEPLVRDDLAAGRLAAPWGFIETDARLALWVPARLHDPRAGRLAQWLREQLAG” as the sequence, how does the “soluble on expression in E. coli” value read?
**A.** The value was “not soluble”.

**Q.** Which “soluble on expression in E. coli” value does the source give for “MSRDTERYPVKHANSLWQIYKTVPFWKVVKNFVVIQLARYTPFVSVKNWLYRTFLKMDVGEKTAFALMVMPDIMFPERISVGRNSIIGYNTTILAHEYLIEEYRLGDVIIGDEVMVGANTTILPGVTIGDRAIIAAGTVVHKNVPPGAFVGGNPMQVIKQLEHHHHHH” here?
**A.** The value was “not soluble”.

**Q.** For “MSRFQTLTPASLSREAFIEAFADIYEHSPWVAEKAYDLGIDDSLNDIEGLHQRMADILLSASREAQLALINAHPDLAGKAAIRGELTASSTSEQAGAGIHECSAEEFARFTELNDAYKARFGFPFIKAVKGSNRHQILAAFEERIQHSADEEFATALAEINKIALFRLQQL”, which “soluble on expression in E. coli” value is on record?
**A.** Its value is “not soluble”.

**Q.** With “MSRGGKGGDGDTRGGGGENGNQNNKGGNDEGGNEIEVPSMEELDGLADKIADEFVSQGMKIYQTLDPETRPYPDEYREGLRSQVEELPEKFKEFYTPGPGEFTAKLDLIDELTRKLDTQAGDFNTGEISGHVHDAMDNMGEWEGALSISFRKGYLDPLYEGIIPNHGRVLALLHDNFQAMRDIYAEGRKSLKKIGEDGLSAMEQADDVDGAAVVTALTVLAAAFGLGFAGLAAVPGIATAAGVAGAAVAGGLAVASDQAPEPEEIPLAGSSAEDVLVNIYDALSKLEDDILTKEAELIDTILRGCDETLELVGDTTENSMLVPKMPDLVGTALDDYHQISEGLNQFD” as the sequence, how does the “soluble on expression in E. coli” value read?
**A.** The value was “not soluble”.

**Q.** For “MSRIRSNNDNIIILTDEQRKTVGRIAGRSQNRNTSKKIADGPYFLPRYRIRDNAERSVGARFKSLPQKEQDEVVNEAFSNLREYLKKREPFYAKLRKANSKYSSKPKEREKSVDSNDEADRRNKGNKKTQKNASKNCQIEKSSNNSGILKKSGSGISVASKPKKSVAFAPGVYEDLSTDDDLEFLNSVIVNSDRPTSQCDNPARRMCGRPPTKHRDTEQSQEITGSKKQKIFPTPHEKPAWWSFRIPKKRAQ”, which “soluble on expression in E. coli” value is on record?
**A.** The value was “soluble”.

**Q.** Which “soluble on expression in E. coli” value does the source give for “MSRNLHHTEEIYQSSYLNSSLIEFMPNTILPGKETVFMSSKMEQIIEEIEDYIDGCKPSPISRNKILVNREQLEELLSELRTKTPEEVKRYQKIISNKEAILADAQAKADQIIAQAQIQTNELVSEHQIMQQAYAQANEVVQIATKQAQEILDSATNEANNLRMSAMAYTDSQLKSIEDILTGSIETSKARYDSLISSLQQFEDVVAANRAELFPPEENGDEAAGAESSDNEATSDTSDDDIEITNISDSDEDAK” here?
**A.** Its value is “not soluble”.

**Q.** For “MSRRAGTPTAKKVTQLVNVEEHVEGFRQVREAHRRELIDDYVELISDLIREVGEARQVDMAARLGVSQPTVAKMLKRLATMGLIEMIPWRGVFLTAEGEKLAQESRERHQIVENFLLVLGVSPEIARRDAEGMEHHVSEETLDAFRLFTQKHGAK”, which “soluble on expression in E. coli” value is on record?
**A.** The value was “soluble”.

**Q.** Which “soluble on expression in E. coli” value does the source give for “MSRYNWNVPILEVLKEAVMVKKLNKIAVVGTPCVINAVYQMMATNNDLVEPFKKAIRLKISLFCFETFDYDKMLKKLKEVEVNPWDIKKMEIDKGKLIVSTIHGNVFNFKIDEMDEYVRKGCKVCRDFTGISSDISVGNVGTPEGYSTVLVRNKWGKGFFDRAVINGYVSVEGEASIDPVISLSKKKMERKDIEFLEHHHHHH” here?
**A.** Its value is “soluble”.

**Q.** For “MSSASAHHKKDLLDQVNNPVFLQDLRQQMIKFAVLQLASLPHAEDVVQDALASAFQHLDSFTGRAAFKTWVFAILKNKIIDLIRQKSRLVSMSELFKDEESELSIDALFDASGHWHKYEAPQAWLSPEEMMEQQDFWIIFDACLNHLPAKYAQVFMLREVIELNSSEICEKLELTVSHFNVLMYRSRTRLRECLENKWLLQEDCSC”, which “soluble on expression in E. coli” value is on record?
**A.** The value was “not soluble”.

**Q.** Which “soluble on expression in E. coli” value does the source give for “MSSDFPTDPYSTAQQKWLYQDHLVLPTLEKLLKYNLKDKKVLDIGCGNGLNSTTFLQWGARKVVGFDNSQEMIENCKNLHKSSEQSSFHHLNVTDFQLDEKFHVATAVFVLQYVHDKEELRKAIRLIWERKLRNGWFRLWMEDL” here?
**A.** Its value is “not soluble”.

**Q.** With “MSSDTGSEYLDEEIRGDELGPSIDDNALAAAASAARLPFDRPTDHELAFFPELWEHKTAVEVFLLLRNSTLATWQYNPLKECTALDVRNNVFPPFNSDLDLIQNIVHYLSRHGLINFGRYVRSTKISRFLVRDRRSVIVIGAGAAGISAATQLESFGFDVIVLEARNCIGGRIHSFKSKSGEIMETGGDTLRKIEDSPMATLLHQVNFEEHGVFDFTSVFVEGRPLNEEKIHLFLDHYKSAHGALNYQAHQCEHRDDQGSFISRQQAYENLLSMCERGTLIKYYNFCKSLETVARAREHHFNQMKQLRMTALMAENQLKKMEEEGNLEQDPVLRRSLKRDIATSLEKFEEVADAFETADNHWQRLNEHPQAKQYMHPGSEFATFNFMLGFEEYLVGAQLEKVQFSCDSMQNKENGVAARLTEGIAELLTQLSEKRKLDIRLKHRVLDIDYSGFEHVLLKVQRENGDIEEMKAAFVVSTLPIGVLKKTIIADERAPTFTPSLPDKKVEAIRNIGCGSVNKCILEFDRVFWTANGGRNQFVTVSPNIKTRGSMNIWSSVPGSKVLCTYIVGEEAMLELPDDVIIQNAMINLQKAFGNNCPRAPISAHITRWHDDELAFGSGAFMSLRTETTSFDDVMEPLKTSDGMSRVYFAGEHTCSSYTSTIQGAWMSGARAAADISNDHIGIGFVDISGTRGQRGDEEEELLIEVDIDGKIPEKDENEAVADIPNAPNAPNAQKPEEIPKIAEEIELVAEAEKAEKAEVQLEPLVPTVE” as the sequence, how does the “soluble on expression in E. coli” value read?
**A.** The value was “not soluble”.

**Q.** For “MSSETRRKILEAARKAFSKYGYDGVSMEEIAREAGVKKALIYYYFPSKDKLFEEVWREALEELESHLFAVTEETNSYFAKIKKFLKSYVDFVLNKTVLNEIIEKEKSTVRFEEEKWSKLRERYESFIKRVEELIEEGKKQNYVYKDLDSRAAAELIVNSFGDVPKDKRLLQNIQEMILRGLLNVKTEEGR”, which “soluble on expression in E. coli” value is on record?
**A.** The value was “not soluble”.

**Q.** With “MSSEWDNKIIPVIGVPLEARKLPSARIPKKPKETDGNSTETVVNSTEKPEERKEKPPKPPKQKQKQKQNLNNKFLKNLITDTGKPASMNGLFVAEEEAKLTLLEKKAMKIHIEENTLSDPQFPTYTTKHQGRIKFKCRLLWLLNKETFMKRANKPHLANIVVKQAHMEAVPPKQNVNQKKQMKNQEKNKNAKPLMDIKFDEKARSFKQRTGEDYNGGFDISSNYQGSEGSGGYQHIGNTWPNTESQWNYDPSTNGYSTFLASTPDTSTTYQPYQPSEYANFSRQLESSSSSVPVYGGATDPTQTSTSSVISFGVAVHEPISESSASAYDDPTRNHWNPQSATSDYSTVPTSGTSNVFPSYQTSEYSSFPNQTPSSSSSYQQSSQYTPMVPDLINQAINGYTTPQYNQPNQQVNQDFNTNQFSASLASLHSQPLEASEDELLRQKRLMEIEQELHMINAKKMHMQMEAEIRHREMELAKRQQLMELRERELRDRECFENGRTHAGHTGQHNYDNREYSSHHESKNPSVGGNYSSTSRSISINEDPAASHYYGQRVERKKRLGGELARRQGRVYEEVSSPGPLKRSADQSRAGSIQPAEGPSRKQRRRNNKNVQVTVNMEDISDDEEV” as the sequence, how does the “soluble on expression in E. coli” value read?
**A.** The value was “not soluble”.

**Q.** Which “soluble on expression in E. coli” value does the source give for “MSSHKEEPLEADVDQLTQYRERCADHVTEFKSILDECNDRVNSRSNTEETCHQEMADYVHHLDHCAMPKAFASLK” here?
**A.** Its value is “not soluble”.
